# In article PMC8140096, “Structural basis of substrate recognition and thermal protection by a small heat shock protein” (Nature Communications, 2021):
# B1: Arabidopsis thaliana plastid small heat shock protein Hsp21 (44-227), N-terminal hexahistidine tag (natural protein)
# chain: not shown
# notes: Hsp21, Arabidopsis thaliana, UniProt P31170, residues 44-227, without the transit peptide; Alone it is a dodecamer (twelve identical subunits, tetrahedral); In the complex with DXPS it is a single monomer; also called His-Hsp21; Hsp21 dodecamer; source: E. coli BL21 Rosetta 2 (DE3), co-expressed with DXPS-His-FLAG at 37 °C, complex purified (HisTrap, anti-FLAG M2); E. coli BL21 Rosetta (DE3), …
# B2: Arabidopsis thaliana 1-deoxy-D-xylulose 5-phosphate synthase (59-717), C-terminal hexahistidine-FLAG tandem tag (enzyme, UniProt Q38854 59-717, looked up)
# chain: ASLAEKGEYYSNRPPTPLLDTINYPIHMKNLSVKELKQLSDELRSDVIFNVSKTGGHLGSSLGVVELTVALHYIFNTPQDKILWDVGHQSYPHKILTGRRGKMPTMRQTNGLSGFTKRGESEHDCFGTGHSSTTISAGLGMAVGRDLKGKNNNVVAVIGDGAMTAGQAYEAMNNAGYLDSDMIVILNDNKQVSLPTATLDGPSPPVGALSSALSRLQSNPALRELREVAKGMTKQIGGPMHQLAAKVDEYARGMISGTGSSLFEELGLYYIGPVDGHNIDDLVAILKEVKSTRTTGPVLIHVVTEKGRGYPYAERADDKYHGVVKFDPATGRQFKTTNKTQSYTTYFAEALVAEAEVDKDVVAIHAAMGGGTGLNLFQRRFPTRCFDVGIAEQHAVTFAAGLACEGLKPFCAIYSSFMQRAYDQVVHDVDLQKLPVRFAMDRAGLVGADGPTHCGAFDVTFMACLPNMIVMAPSDEADLFNMVATAVAIDDRPSCFRYPRGNGIGVALPPGNKGVPIEIGKGRILKEGERVALLGYGSAVQSCLGAAVMLEERGLNVTVADARFCKPLDRALIRSLAKSHEVLITVEEGSIGGFGSHVVQFLALDGLLDGKLKWRPMVLPDRYIDHGAPADQLAEAGLMPSHIAATALNLIGAPREALF
# notes: 1-deoxy-D-xylulose 5-phosphate synthase (DXPS), Arabidopsis thaliana, UniProt Q38854, residues 59-717, without the transit peptide; also called DXPS; DXPS-His-FLAG; source: E. coli BL21 Rosetta 2 (DE3), co-expressed with His-Hsp21 at 37 °C, purified (HisTrap, anti-FLAG M2); not shown: His6, C-terminal, kept; FLAG, C-terminal, kept
# Legend:
# [1] = target: the molecule itself; assay: cryo-EM structure; purified Hsp21 without substrate, 1 mg/mL; tetrahedral symmetry imposed, 4.6 Å
# [2] = target: B2; assay: cryo-EM structure; His-Hsp21 and DXPS-His-FLAG co-expressed in E. coli at 37 °C, purified together (HisTrap, anti-FLAG), 0.7 mg/mL; 3D classification gave free DXPS (4.0 Å) and Hsp21-DXPS (3.7 Å); conditions: both partners purified
# [3] = target: the molecule itself; assay: as above
Binder,stoichiometry N [1],stoichiometry N [2],stoichiometry N [3]
B1,12,1,
B2,,,2
